Assay results as given in publication PMC9638933.

Legend:
[1] = biological target: Kumin (M. tuberculosis Ku without the extended C-terminus) (M. tuberculosis); assay: SEC-MALS; 50 uM protein in 50 mM HEPES pH 8.0, 1 mM EDTA, 200 mM NaCl; Superdex 200 Increase 10/300 GL; MiniDAWN and Optilab
[2] = biological target: Kumin (M. tuberculosis Ku without the extended C-terminus) (M. tuberculosis); assay: BLI; Octet RED96, 37°C, 1000 rpm; biotinylated Ku (25 ug/ml) loaded on streptavidin biosensors; LigD, LIG or POL as analyte (12.5 ug/ml), 300 s association, 300 s dissociation; 1x kinetics buffer (0.1% BSA, 0.02% Tween-20, 0.05% sodium azide in PBS); grouped global fit
[3] = biological target: the molecule itself; assay: SEC-MALS; 50 uM protein; 50 mM HEPES pH 8.0, 1 mM EDTA, 200 mM NaCl; Superdex 200 Increase 10/300 GL
LigD = LigD (UniProt P9WNV3 1-759); assay: fluorescence polarization; EMSA: 50 mM Tris-HCl pH 8.0, 50 mM NaCl, 1 mM DTT, 5 mM MgCl2, 4% glycerol, 0.025 mg/ml BSA, 10 nM DNA, 30 C 20 min; FP: 10 mM Tris-HCl pH 8, 10 mM NaCl, 10% glycerol, 1 mM TCEP, 50 nM DNA, 30 C; ternary EMSA: 20 mM Tris-HCl pH 8.0, 5 mM MgCl2, 5% glycerol, 37 C; bridging: 20 mM Tris-HCl pH 7.5, 50 mM KCl, 5 mM EDTA, 1 mM DTT, 5% glycerol, 40 ug/ml BSA, room temperature; settings: protein: recombinant; tags: His (Ni-NTA purified; pMCSG7); label: 5' 6-FAM on strand 1; blunt
KuWT [4] = biological target: T1, KuWT (Mycobacterium tuberculosis, UniProt P9WKD9 1-273); assay: EMSA; 5 mM Mg2+; EMSA: 50 mM Tris-HCl pH 8.0, 50 mM NaCl, 1 mM DTT, 5 mM MgCl2, 4% glycerol, 0.025 mg/ml BSA, 10 nM DNA, 30 C 20 min; FP: 10 mM Tris-HCl pH 8, 10 mM NaCl, 10% glycerol, 1 mM TCEP, 50 nM DNA, 30 C; ternary EMSA: 20 mM Tris-HCl pH 8.0, 5 mM MgCl2, 5% glycerol, 37 C; bridging: 20 mM Tris-HCl pH 7.5, 50 mM KCl, 5 mM EDTA, 1 mM DTT, 5% glycerol, 40 ug/ml BSA, room temperature; settings: protein: recombinant; tags: His (Ni-NTA purified; pMCSG7); chain copies: 2; label: 5' 6-FAM on strand 1; blunt
T1 sequence: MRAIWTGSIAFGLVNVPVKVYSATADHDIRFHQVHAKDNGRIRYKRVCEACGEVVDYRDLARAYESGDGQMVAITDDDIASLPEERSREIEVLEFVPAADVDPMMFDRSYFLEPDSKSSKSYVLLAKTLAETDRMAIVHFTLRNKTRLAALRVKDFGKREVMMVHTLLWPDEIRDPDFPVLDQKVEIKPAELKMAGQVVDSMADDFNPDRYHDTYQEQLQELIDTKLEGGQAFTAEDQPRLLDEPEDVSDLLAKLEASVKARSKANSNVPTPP

Kucore [5] = biological target: T2, Kucore (Mycobacterium tuberculosis, UniProt P9WKD9 1-238); assay: as above; settings: protein: recombinant; tags: His (Ni-NTA purified; pMCSG7); chain copies: 2; label: 5' 6-FAM on strand 1; blunt
T2 sequence: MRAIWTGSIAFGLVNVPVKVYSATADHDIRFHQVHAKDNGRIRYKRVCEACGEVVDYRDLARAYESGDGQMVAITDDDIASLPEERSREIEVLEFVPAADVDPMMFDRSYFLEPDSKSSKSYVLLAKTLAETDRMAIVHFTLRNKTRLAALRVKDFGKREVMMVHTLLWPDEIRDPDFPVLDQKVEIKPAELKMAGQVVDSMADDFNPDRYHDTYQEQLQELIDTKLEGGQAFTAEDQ

Kumin [6] = biological target: T3, Kumin (Mycobacterium tuberculosis, UniProt P9WKD9 1-259); assay: as above; settings: protein: recombinant; tags: His (Ni-NTA purified; pMCSG7); chain copies: 2; label: 5' 6-FAM on strand 1; blunt
T3 sequence: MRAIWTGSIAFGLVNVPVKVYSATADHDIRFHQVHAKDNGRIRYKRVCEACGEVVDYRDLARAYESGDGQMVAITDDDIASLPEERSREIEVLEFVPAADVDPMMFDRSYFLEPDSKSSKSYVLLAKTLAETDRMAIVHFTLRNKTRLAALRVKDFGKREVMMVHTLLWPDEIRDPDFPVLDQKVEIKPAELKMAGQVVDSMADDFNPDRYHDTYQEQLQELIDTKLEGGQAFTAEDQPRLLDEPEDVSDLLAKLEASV

Kucore [7] = biological target: T2, Kucore; assay: EMSA; EMSA: 50 mM Tris-HCl pH 8.0, 50 mM NaCl, 1 mM DTT, 5 mM MgCl2, 4% glycerol, 0.025 mg/ml BSA, 10 nM DNA, 30 C 20 min; FP: 10 mM Tris-HCl pH 8, 10 mM NaCl, 10% glycerol, 1 mM TCEP, 50 nM DNA, 30 C; ternary EMSA: 20 mM Tris-HCl pH 8.0, 5 mM MgCl2, 5% glycerol, 37 C; bridging: 20 mM Tris-HCl pH 7.5, 50 mM KCl, 5 mM EDTA, 1 mM DTT, 5% glycerol, 40 ug/ml BSA, room temperature; settings: protein: recombinant; tags: His (Ni-NTA purified; pMCSG7); chain copies: 2; label: 5' 6-FAM on strand 1; blunt
KuWT [8] = biological target: T1, KuWT; assay: as above; settings: protein: recombinant; tags: His (Ni-NTA purified; pMCSG7); chain copies: 2; label: 5' 6-FAM on strand 1; blunt
Kumin [9] = biological target: T3, Kumin; assay: as above; settings: protein: recombinant; tags: His (Ni-NTA purified; pMCSG7); chain copies: 2; label: 5' 6-FAM on strand 1; blunt
[10] = biological target: T4, LigD (wildtype), Mycobacterium tuberculosis (M. tuberculosis, UniProt P9WNV3 1-759); assay: BLI; Octet RED96, 37°C, 1000 rpm; biotinylated Ku (25 ug/ml) loaded on streptavidin biosensors; LigD, LIG or POL as analyte (12.5 ug/ml), 300 s association, 300 s dissociation; 1x kinetics buffer (0.1% BSA, 0.02% Tween-20, 0.05% sodium azide in PBS); grouped global fit; settings: both partners purified
T4 construct: The His tag is TEV-cleavable; also called wildtype LigD

[11] = biological target: the molecule itself; assay: SEC-MALS; 50 uM protein in 50 mM HEPES pH 8.0, 1 mM EDTA, 200 mM NaCl; Superdex 200 Increase 10/300 GL; MiniDAWN and Optilab

Chain of LigD (P9WNV3 whole entry): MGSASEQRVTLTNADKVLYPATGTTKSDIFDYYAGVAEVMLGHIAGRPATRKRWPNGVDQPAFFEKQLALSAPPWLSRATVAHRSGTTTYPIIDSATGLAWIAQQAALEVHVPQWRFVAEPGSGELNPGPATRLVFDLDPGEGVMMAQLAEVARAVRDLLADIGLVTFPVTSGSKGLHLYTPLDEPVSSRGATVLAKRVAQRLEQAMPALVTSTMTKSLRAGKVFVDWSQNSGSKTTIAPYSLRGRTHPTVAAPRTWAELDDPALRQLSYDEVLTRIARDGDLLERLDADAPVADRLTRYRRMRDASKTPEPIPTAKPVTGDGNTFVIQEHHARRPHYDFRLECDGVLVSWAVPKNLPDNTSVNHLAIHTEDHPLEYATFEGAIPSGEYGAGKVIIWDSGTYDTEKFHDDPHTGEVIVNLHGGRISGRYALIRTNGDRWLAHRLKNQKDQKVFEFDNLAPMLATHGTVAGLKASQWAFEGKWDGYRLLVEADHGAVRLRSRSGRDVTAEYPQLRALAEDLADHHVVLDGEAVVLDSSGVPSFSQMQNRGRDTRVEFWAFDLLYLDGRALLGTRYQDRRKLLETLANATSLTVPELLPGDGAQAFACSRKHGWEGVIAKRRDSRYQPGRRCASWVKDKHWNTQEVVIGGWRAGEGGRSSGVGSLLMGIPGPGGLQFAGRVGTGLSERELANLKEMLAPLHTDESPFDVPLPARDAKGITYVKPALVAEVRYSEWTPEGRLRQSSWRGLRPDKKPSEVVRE
T4 sequence (P9WNV3 whole entry): as above

Q: How did the stoichiometry N [1] turn out when “Kumin (M. tuberculosis Ku without the extended C-terminus) (domain or fragment)” was run?
A: 2

Q: Which Kd [2] does the source give for “LigD (wildtype), Mycobacterium tuberculosis (from UniProt P9WNV3 1-759) (enzyme)” here?
A: 288 nM

B1: Mycobacterium tuberculosis Ku, wildtype (natural protein)
chain: MRAIWTGSIAFGLVNVPVKVYSATADHDIRFHQVHAKDNGRIRYKRVCEACGEVVDYRDLARAYESGDGQMVAITDDDIASLPEERSREIEVLEFVPAADVDPMMFDRSYFLEPDSKSSKSYVLLAKTLAETDRMAIVHFTLRNKTRLAALRVKDFGKREVMMVHTLLWPDEIRDPDFPVLDQKVEIKPAELKMAGQVVDSMADDFNPDRYHDTYQEQLQELIDTKLEGGQAFTAEDQPRLLDEPEDVSDLLAKLEASVKARSKANSNVPTPP
notes: The His tag is TEV-cleavable (pMCSG7) and no cleavage is described; also called KuWT
Q: B1 was tested. Which “stoichiometry N” value [3] did it give?
A: 2

B2: 15 bp dsDNA (dsDNA)
DNA 1: CAGGAAGGGAATGTT
DNA 2: AACATTCCCTTCCTG
Q: Does B2 bind (LigD)?
A: binds

Q: What about the Kd (KuWT [4]) of the same molecule?
A: 1630 ± 300 nM

B3: 30 bp dsDNA (dsDNA)
DNA 1: CAGGAGGTGTAGGGAAGGGAATGTTGTCTG
DNA 2: CAGACAACATTCCCTTCCCTACACCTCCTG
Q: Does B3 bind (LigD)?
A: binds

Q: And the Kd (KuWT [4])?
A: 1180 ± 90 nM

B4: 20 bp dsDNA (dsDNA)
DNA 1: CAGGAAGGGAATGTTGTCTG
DNA 2: CAGACAACATTCCCTTCCTG
Q: Does B4 bind (LigD)?
A: binds

Q: Does B4 bind (Kucore [5])?
A: binds

Q: Does B4 bind (KuWT [4])?
A: binds

Q: Does B4 bind (Kumin [6])?
A: binds

B5: Mycobacterium tuberculosis Kumin (extended C-terminus removed) (domain or fragment)
chain: MRAIWTGSIAFGLVNVPVKVYSATADHDIRFHQVHAKDNGRIRYKRVCEACGEVVDYRDLARAYESGDGQMVAITDDDIASLPEERSREIEVLEFVPAADVDPMMFDRSYFLEPDSKSSKSYVLLAKTLAETDRMAIVHFTLRNKTRLAALRVKDFGKREVMMVHTLLWPDEIRDPDFPVLDQKVEIKPAELKMAGQVVDSMADDFNPDRYHDTYQEQLQELIDTKLEGGQAFTAEDQPRLLDEPEDVSDLLAKLEASV
modifications: in BLI only: biotin (NHS-LC-Biotin) on K19, K37, K45, K117, K120, K127, K154, K184, K188, K193, K226, K254
notes: Ku of M. tuberculosis, UniProt P9WKD9, residues 1-259 (core domain and minimal C-terminal region); The His tag is TEV-cleavable (pMCSG7) and no cleavage is described; The protein was not biotinylated for SEC-MALS
Q: B5 was tested. Which “stoichiometry N” value [3] did it give?
A: 2

B6: 10 bp dsDNA (dsDNA)
DNA 1: CAGGAAGGTG
DNA 2: CACCTTCCTG
Q: For B6, which Kd (LigD) is on record?
A: 1100 ± 70 nM

Q: Does B6 bind (Kucore [7])?
A: no binding

Q: Does B6 bind (KuWT [8])?
A: no binding

Q: Does B6 bind (Kumin [9])?
A: no binding

B7: Mycobacterium tuberculosis Kucore (entire C-terminus removed) (domain or fragment)
chain: MRAIWTGSIAFGLVNVPVKVYSATADHDIRFHQVHAKDNGRIRYKRVCEACGEVVDYRDLARAYESGDGQMVAITDDDIASLPEERSREIEVLEFVPAADVDPMMFDRSYFLEPDSKSSKSYVLLAKTLAETDRMAIVHFTLRNKTRLAALRVKDFGKREVMMVHTLLWPDEIRDPDFPVLDQKVEIKPAELKMAGQVVDSMADDFNPDRYHDTYQEQLQELIDTKLEGGQAFTAEDQ
modifications: in BLI only: biotin (NHS-LC-Biotin) on K19, K37, K45, K117, K120, K127, K154, K158, K184, K188, K193, K226
notes: Ku of M. tuberculosis, UniProt P9WKD9, residues 1-238 (core domain); The His tag is TEV-cleavable (pMCSG7) and no cleavage is described; The protein was not biotinylated for SEC-MALS; also called Ku core domain
Q: With B7 as the molecule, how does the “stoichiometry N” value [3] read?
A: 2

B8: Ku_(core) (M. tuberculosis Ku core domain, entire C-terminus removed) (domain or fragment)
chain: MRAIWTGSIAFGLVNVPVKVYSATADHDIRFHQVHAKDNGRIRYKRVCEACGEVVDYRDLARAYESGDGQMVAITDDDIASLPEERSREIEVLEFVPAADVDPMMFDRSYFLEPDSKSSKSYVLLAKTLAETDRMAIVHFTLRNKTRLAALRVKDFGKREVMMVHTLLWPDEIRDPDFPVLDQKVEIKPAELKMAGQVVDSMADDFNPDRYHDTYQEQLQELIDTKLEGGQAFTAEDQ
modifications: biotinylated at multiple sites with NHS-LC-Biotin for BLI only (sites listed in Supplementary Table S3)
Q: Which Kd [10] does the source give for B8 here?
A: 200 nM

Q: And the “stoichiometry N” value [11]?
A: 2
